According to PMC2765437:

Key:
[1] = tested on: M-pol (MuLV RT polymerase domain) (MuLV); experiment: EMSA; details: 50 mM Tris-HCl pH 7.8, 60 mM KCl, 1 mM DTT, 0.01% NP40, 10% glycerol; 5 nM labeled template-primer, 10 uL; 6% native gel in Tris-borate pH 8.2 run at 4 C …
[2] = tested on: chimeric HIV-1 RT (HIV-1 RT polymerase domain + MuLV RT RNase H domain) (HIV-1 / MuLV chimera); experiment: EMSA; details: 50 mM Tris-HCl pH 7.8, 60 mM KCl, 1 mM DTT, 0.01% NP40, 10% glycerol; 5 nM labeled template-primer, 10 uL; 6% native gel in Tris-borate pH 8.2 run at 4 C …
[3] = tested on: chimeric MuLV RT (MHCI RT; MuLV RT polymerase domain + HIV-1 RT RNase H domain) (MuLV / HIV-1 chimera); experiment: EMSA; details: 50 mM Tris-HCl pH 7.8, 60 mM KCl, 1 mM DTT, 0.01% NP40, 10% glycerol; 5 nM labeled template-primer, 10 uL; 6% native gel in Tris-borate pH 8.2 run at 4 C …
[4] = tested on: wild-type HIV-1 RT (p66/66) (HIV-1); experiment: EMSA; details: 50 mM Tris-HCl pH 7.8, 60 mM KCl, 1 mM DTT, 0.01% NP40, 10% glycerol; 5 nM labeled template-primer, 10 uL; 6% native gel in Tris-borate pH 8.2 run at 4 C …
wild-type MuLV RT (MuLV) = experiment: EMSA; details: 50 mM Tris-HCl pH 7.8, 60 mM KCl, 1 mM DTT, 0.01% NP40, 10% glycerol; 5 nM labeled template-primer, 10 uL; 6% native gel in Tris-borate pH 8.2 run at 4 C …
[5] = target: wild-type p66/66 HIV-1 RT (human immunodeficiency virus type 1 reverse transcriptase) (human immunodeficiency virus type 1); experiment: glycerol gradient ultracentrifugation; 50 micrograms of each enzyme alone on 5 ml of 10%-30% linear glycerol gradient in 50 mM Tris HCl pH 8.0, 400 mM NaCl; 48,000 rpm, 20-24 h, SW 50.1 rotor; fractions from the bottom analysed by SDS-PAGE and Coomassie blue

Row | Substance | Kd [1] | Kd [2] | Kd [3] | Kd [4] | Kd (wild-type MuLV RT (MuLV)) | stoichiometry N [5]
1 | 49-mer DNA template / 17-mer PBS DNA primer | 1.2 nM | 1.5 nM | 3.3 nM | 3.2 nM | 2.7 nM | –
2 | wild-type p66/66 HIV-1 RT (human immunodeficiency virus type 1 reverse transcriptase) (enzyme) | – | – | – | – | – | 2
